From patent US20240376151A1, “STAPLED PEPTIDES AND METHODS THEREOF” (FOG PHARMACEUTICALS, INC., priority 2022, published 2024)
Numbered stars: 1 amine (or outer) side, 2 acyl side, 3 side chain; on linkers, the order of the positions; unused ones are H or OH. Bridge positions count the residues as written; N and C are the ends. Ends that are not written are not given here. Phenylene(1,4-NHCOCH2)2 = O=C(C[*:1])Nc1ccc(NC(=O)C[*:2])cc1

Molecular target: T1, WWP2^HECT (Homo sapiens, UniProt O00308)
T1 construct: GST-TEV (N, cleaved yes); made in house; host or cells: Escherichia coli BL21 (DE3)
T1 sequence (O00308 492-865): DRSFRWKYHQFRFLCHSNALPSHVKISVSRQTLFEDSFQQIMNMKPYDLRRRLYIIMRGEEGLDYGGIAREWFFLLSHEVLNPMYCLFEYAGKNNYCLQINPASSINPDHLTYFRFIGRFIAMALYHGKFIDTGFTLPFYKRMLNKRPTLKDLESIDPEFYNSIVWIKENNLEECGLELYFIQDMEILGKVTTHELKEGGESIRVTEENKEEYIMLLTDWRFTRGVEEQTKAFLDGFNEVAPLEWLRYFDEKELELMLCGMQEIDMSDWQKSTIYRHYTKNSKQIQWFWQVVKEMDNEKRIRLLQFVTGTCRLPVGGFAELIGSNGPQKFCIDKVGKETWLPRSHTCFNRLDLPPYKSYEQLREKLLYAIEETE
Assay: Naive Library Presenter Screening (phage, NGS), WWP2^HECT
Type: binding
Conditions: for interaction data at Target Concentration 10: WWP2 target concentration 10 nM; for interaction data at Target Concentration 30: WWP2 target concentration 30 nM; for interaction data at Target Concentration 100: WWP2 target concentration 100 nM; for interaction data at Target Concentration 300: WWP2 target concentration 300 nM; for interaction data at Target Concentration 1000: WWP2 target concentration 1000 nM

| interaction data at Target Concentration 10 | interaction data at Target Concentration 30 | interaction data at Target Concentration 100 | interaction data at Target Concentration 300 | interaction data at Target Concentration 1000 (first column) | interaction data at Target Concentration 1000 (second column) | Sequence |
| --- | --- | --- | --- | --- | --- | --- |
| 0 | 47 | 26 | 37 | 59 | 123 | DPALLHCMAAAQTCSFF (linker 7-14 via Phenylene(1,4-NHCOCH2)2; not fully specified (C-terminus)) |
| 1 | 24 | 17 | 18 | 28 | 32 | DPALWECMTAADWCMFM (linker 7-14 via Phenylene(1,4-NHCOCH2)2; not fully specified (C-terminus)) |
| 0 | 0 | 0 | 24 | 35 | 27 | DPALWECRNAAWQCWMH (linker 7-14 via Phenylene(1,4-NHCOCH2)2; not fully specified (C-terminus)) |
| 4 | 38 | 24 | 49 | 47 | 76 | DPALWHCLAAAETCAMF (linker 7-14 via Phenylene(1,4-NHCOCH2)2; not fully specified (C-terminus)) |
| 0 | 0 | 6 | 23 | 62 | 24 | DPAMWDCRYAALDCYMT (DPAMWDCRYAALDCYMT-NH2; linker 7-14 via Phenylene(1,4-NHCOCH2)2; N-terminus assumed; SMILES CSCC[C@H](NC(=O)[C@H](C)NC(=O)[C@@H]1CCCN1C(=O)[C@@H](N)CC(=O)O)C(=O)N[C@@H](Cc1c[nH]c2ccccc12)C(=O)N[C@@H](CC(=O)O)C(=O)N[C@H]1CSCC(=O)Nc2ccc(cc2)NC(=O)CSC[C@@H](C(=O)N[C@@H](Cc2ccc(O)cc2)C(=O)N[C@@H](CCSC)C(=O)N[C@H](C(N)=O)[C@@H](C)O)NC(=O)[C@H](CC(=O)O)NC(=O)[C@H](CC(C)C)NC(=O)[C@H](C)NC(=O)[C@H](C)NC(=O)[C@H](Cc2ccc(O)cc2)NC(=O)[C@H](CCCNC(=N)N)NC1=O) |
| 0 | 0 | 0 | 8 | 7 | 28 | DPAMWSCRYAAWECWVL (DPAMWSCRYAAWECWVL-NH2; linker 7-14 via Phenylene(1,4-NHCOCH2)2; N-terminus assumed; SMILES CSCC[C@H](NC(=O)[C@H](C)NC(=O)[C@@H]1CCCN1C(=O)[C@@H](N)CC(=O)O)C(=O)N[C@@H](Cc1c[nH]c2ccccc12)C(=O)N[C@@H](CO)C(=O)N[C@H]1CSCC(=O)Nc2ccc(cc2)NC(=O)CSC[C@@H](C(=O)N[C@@H](Cc2c[nH]c3ccccc23)C(=O)N[C@H](C(=O)N[C@@H](CC(C)C)C(N)=O)C(C)C)NC(=O)[C@H](CCC(=O)O)NC(=O)[C@H](Cc2c[nH]c3ccccc23)NC(=O)[C@H](C)NC(=O)[C@H](C)NC(=O)[C@H](Cc2ccc(O)cc2)NC(=O)[C@H](CCCNC(=N)N)NC1=O) |
| 0 | 0 | 0 | 8 | 7 | 27 | DPANWDCQQAAWLCIIQ (DPANWDCQQAAWLCIIQ-NH2; linker 7-14 via Phenylene(1,4-NHCOCH2)2; N-terminus assumed; SMILES CC[C@H](C)[C@H](NC(=O)[C@@H]1CSCC(=O)Nc2ccc(cc2)NC(=O)CSC[C@H](NC(=O)[C@H](CC(=O)O)NC(=O)[C@H](Cc2c[nH]c3ccccc23)NC(=O)[C@H](CC(N)=O)NC(=O)[C@H](C)NC(=O)[C@@H]2CCCN2C(=O)[C@@H](N)CC(=O)O)C(=O)N[C@@H](CCC(N)=O)C(=O)N[C@@H](CCC(N)=O)C(=O)N[C@@H](C)C(=O)N[C@@H](C)C(=O)N[C@@H](Cc2c[nH]c3ccccc23)C(=O)N[C@@H](CC(C)C)C(=O)N1)C(=O)N[C@H](C(=O)N[C@@H](CCC(N)=O)C(N)=O)[C@@H](C)CC) |
| 8 | 159 | 267 | 241 | 232 | 373 | DPAQDTCRAAADTCAFF (DPAQDTCRAAADTCAFF-NH2; linker 7-14 via Phenylene(1,4-NHCOCH2)2; N-terminus assumed; SMILES C[C@@H]1NC(=O)[C@H](C)NC(=O)[C@H](CCCNC(=N)N)NC(=O)[C@@H](NC(=O)[C@@H](NC(=O)[C@H](CC(=O)O)NC(=O)[C@H](CCC(N)=O)NC(=O)[C@H](C)NC(=O)[C@@H]2CCCN2C(=O)[C@@H](N)CC(=O)O)[C@@H](C)O)CSCC(=O)Nc2ccc(cc2)NC(=O)CSC[C@@H](C(=O)N[C@@H](C)C(=O)N[C@@H](Cc2ccccc2)C(=O)N[C@@H](Cc2ccccc2)C(N)=O)NC(=O)[C@H]([C@@H](C)O)NC(=O)[C@H](CC(=O)O)NC(=O)[C@H](C)NC1=O) |
| 2 | 67 | 51 | 125 | 120 | 127 | DPAQNMCQAAADVCMFF (DPAQNMCQAAADVCMFF-NH2; linker 7-14 via Phenylene(1,4-NHCOCH2)2; N-terminus assumed; SMILES CSCC[C@H](NC(=O)[C@H](CC(N)=O)NC(=O)[C@H](CCC(N)=O)NC(=O)[C@H](C)NC(=O)[C@@H]1CCCN1C(=O)[C@@H](N)CC(=O)O)C(=O)N[C@H]1CSCC(=O)Nc2ccc(cc2)NC(=O)CSC[C@@H](C(=O)N[C@@H](CCSC)C(=O)N[C@@H](Cc2ccccc2)C(=O)N[C@@H](Cc2ccccc2)C(N)=O)NC(=O)[C@H](C(C)C)NC(=O)[C@H](CC(=O)O)NC(=O)[C@H](C)NC(=O)[C@H](C)NC(=O)[C@H](C)NC(=O)[C@H](CCC(N)=O)NC1=O) |
| 165 | 532 | 522 | 555 | 466 | 573 | DPARVDCLVAADMCHMF (DPARVDCLVAADMCHMF-NH2; linker 7-14 via Phenylene(1,4-NHCOCH2)2; N-terminus assumed; SMILES CSCC[C@H](NC(=O)[C@H](Cc1c[nH]cn1)NC(=O)[C@@H]1CSCC(=O)Nc2ccc(cc2)NC(=O)CSC[C@H](NC(=O)[C@H](CC(=O)O)NC(=O)[C@@H](NC(=O)[C@H](CCCNC(=N)N)NC(=O)[C@H](C)NC(=O)[C@@H]2CCCN2C(=O)[C@@H](N)CC(=O)O)C(C)C)C(=O)N[C@@H](CC(C)C)C(=O)N[C@@H](C(C)C)C(=O)N[C@@H](C)C(=O)N[C@@H](C)C(=O)N[C@@H](CC(=O)O)C(=O)N[C@@H](CCSC)C(=O)N1)C(=O)N[C@@H](Cc1ccccc1)C(N)=O) |
| 6 | 83 | 76 | 103 |  | 123 | DPARVNCHAAADTCFFF (linker 7-14 via Phenylene(1,4-NHCOCH2)2) |
| 0 | 0 | 0 | 6 | 23 | 15 | DPATWACINAAHNCWRN (DPATWACINAAHNCWRN-NH2; linker 7-14 via Phenylene(1,4-NHCOCH2)2 (inferred)) |
| 0 | 0 | 1 | 4 | 9 | 13 | DPATWDCIWAAERCWRY (linker 7-14 via Phenylene(1,4-NHCOCH2)2 (inferred); not fully specified (C-terminus)) |
| 1 | 0 | 12 | 60 | 40 | 75 | DPATWDCNVAAHRCWFL (linker 7-14 via Phenylene(1,4-NHCOCH2)2 (inferred); not fully specified (C-terminus)) |
| 0 | 0 | 2 | 23 | 35 | 66 | DPATWDCQQAAHHCWVL (linker 7-14 via Phenylene(1,4-NHCOCH2)2 (inferred); not fully specified (C-terminus)) |
| 0 | 1 | 4 | 8 | 12 | 12 | DPATWDCRNAAWLCLLN (linker 7-14 via Phenylene(1,4-NHCOCH2)2 (inferred); not fully specified (C-terminus)) |
| 37 | 57 | 70 | 94 | 78 | 123 | DPATYYCEAAAETCRFF (linker 7-14 via Phenylene(1,4-NHCOCH2)2 (inferred); not fully specified (C-terminus)) |
